Measurements from paper PMC3459862.

Target: GST-WC-1 mini, LXXLL motif mutant (LAQLL changed to LAQAA) (Neurospora crassa) (UniProt Q01371)
Experiment: pull-down

Chain of UniProt Q01371 (Q01371 838-1000, change not shown): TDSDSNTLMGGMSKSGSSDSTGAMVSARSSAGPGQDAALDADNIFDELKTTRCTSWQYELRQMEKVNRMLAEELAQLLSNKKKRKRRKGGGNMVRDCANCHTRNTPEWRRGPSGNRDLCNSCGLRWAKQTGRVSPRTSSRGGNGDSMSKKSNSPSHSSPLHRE

S. cerevisiae Gcn5p, 35S-radiolabeled (from UniProt Q03330 1-439) (enzyme)
percent decrease of retained Gcn5p against WC-1 mini: 45%
